Measurements: publication doi:10.1101/2022.07.28.501929
Read-outs that look alike come from different tables or passages of the source.

B1: SAM20-20 (mixed)
DNA 1: ACGTGAGAGCAGTCCGTGGTAGGGCAGGTTGGGGTGACTCATACGACGA
DNA 2: GCTCTCACGTTCGTCGTATG
B2: SAM16-16 with EcoRI site, EcoRI digested (mixed)
DNA 1: AATTCCGAAGTCCGTGGTAGGGCAGGTTGGGGTGACTATCGACGG
DNA 2: TCGG
DNA 3: AATTCCGTCGAT
B3: SAM22-22 (mixed)
DNA 1: ACGTGAGAGCAAGTCCGTGGTAGGGCAGGTTGGGGTGACTACATACGACGA
DNA 2: TGCTCTCACGTTCGTCGTATGT
B4: SAM24-24 (mixed)
DNA 1: ACGTGAGAGCAGAGTCCGTGGTAGGGCAGGTTGGGGTGACTGACATACGACGA
DNA 2: CTGCTCTCACGTTCGTCGTATGTC
B5: SAM16-16 (SAM16 with gap = 0) (mixed)
DNA 1: ACGTGAGAAGTCCGTGGTAGGGCAGGTTGGGGTGACTTACGACGA
DNA 2: TCTCACGTTCGTCGTA
B6: SAM16 with gap = 3 (mixed)
DNA 1: B5 DNA 1
DNA 2: TCTCACGTTTTTCGTCGTA

What was measured:
[1] = target: T1, Human alpha-thrombin (Factor IIa) (Homo sapiens, UniProt P00734;P00734 328-363;364-622); experiment: bead fluorescence binding
[2] = target: T1, Human alpha-thrombin (Factor IIa); experiment: bead fluorescence binding; remark: listed apart in the source

Row | Binder | binding result [1] | Kd [1] [nM] | further results
1 | B1 | binds | – | –
2 | B2 | – | – | Kd [2]: 56.3 ± 5.48 nM
3 | B3 | binds | – | –
4 | B4 | – | 30.9 ± 5.67 | –
5 | B5 | – | 2010 ± 87.3 | –
6 | B6 | – | 11.6 ± 2.87 | –
